Test results published in the RNAGym collection of RNA variant scans (doi:10.7554/elife.80360).

B1: Hairpin Ribozyme (parent)
chain: GUCCUCUUUCACGUGCGCGUGAAAGAGAGAAGUGAACCAGAGAAACACACGUUGUGGUAUAUUACCUGGUA

Variants of: B1
Assay: self-cleavage, relative activity (ratio to wild type); higher = more cleavage; co-transcriptional
A11C U70A gave a self-cleavage of 0.877. A11G C37G gave a self-cleavage of 0.34. A11G C37A gave a self-cleavage of 0.149. A11U G32C showed a self-cleavage of 0.144. In the case of C10U U20C, the self-cleavage is reported as 0.722. In the case of A11G G56U, the self-cleavage is reported as 0.105. Work on A11G C50U yielded a self-cleavage of 0.321. Work on A11C C12A yielded a self-cleavage of 0.636. A11U A59G showed a self-cleavage of 0.0747. A11G A39G showed a self-cleavage of 0.323. For A11G G34C, the self-cleavage was 1.3. C10U A71C gave a self-cleavage of 1.23. With C10U A71U the self-cleavage was 0.706. Work on C12A A36G yielded a self-cleavage of 0.956. In the case of A11U C50U, the self-cleavage is reported as 0.36. Work on C10U U58A yielded a self-cleavage of 0.533. With C10U U33C the self-cleavage was 0.0734. For C10U U33G, the self-cleavage was 0.196. A11G G13A gave a self-cleavage of 0.924. Variant A11U G29U has a self-cleavage of 0.0998. A11U G29C gave a self-cleavage of 0.0923. With A11U G51U the self-cleavage was 0.805. In the case of A11U G51A, the self-cleavage is reported as 0.799. In the case of A11U A26U, the self-cleavage is reported as 0.775. With A11U A26G the self-cleavage was 0.751. Work on C10U G29A yielded a self-cleavage of 0.158. With C12A G51A the self-cleavage was 0.898. Variant C12A A61G has a self-cleavage of 0.174. For C12A U58C, the self-cleavage was 0.686. Work on C12A U58A yielded a self-cleavage of 0.733. A11U G27C gave a self-cleavage of 0.184. For A11C A47C, the self-cleavage was 0.267. With A11C A47G the self-cleavage was 0.0993. Work on C10U G15U yielded a self-cleavage of 0.843. Work on C10U G15C yielded a self-cleavage of 0.825. In the case of C10U G15A, the self-cleavage is reported as 0.722. In the case of C12G C48G, the self-cleavage is reported as 0.0599. C12G C48U showed a self-cleavage of 0.193. A11C C38A gave a self-cleavage of 0.171. Work on A11U G57C yielded a self-cleavage of 0.182. In the case of A11C C65A, the self-cleavage is reported as 0.896. Variant A11C C65U has a self-cleavage of 0.431. A11G G27C showed a self-cleavage of 0.198. In the case of C12A G54A, the self-cleavage is reported as 0.485. In the case of A11U U63C, the self-cleavage is reported as 0.122. Variant C10U C12G has a self-cleavage of 0.612. C10U A45U gave a self-cleavage of 0.111. In the case of C10U A45C, the self-cleavage is reported as 0.159. Work on C10U A45G yielded a self-cleavage of 0.0999. In the case of A11C A64U, the self-cleavage is reported as 0.237. With A11U G42U the self-cleavage was 0.171. Work on A11U G42C yielded a self-cleavage of 0.271. Variant A11U A61G has a self-cleavage of 0.176. For A11C G34C, the self-cleavage was 1.07. Variant A11C G34A has a self-cleavage of 1.01. Variant A11G U60G has a self-cleavage of 0.565. Variant A11G G17U has a self-cleavage of 0.823. Variant A11G G17C has a self-cleavage of 0.571. A11U U55G showed a self-cleavage of 0.339. In the case of A11U U55C, the self-cleavage is reported as 0.118. With C12A A31U the self-cleavage was 0.104. For C12A C38A, the self-cleavage was 0.18. A11G A49U showed a self-cleavage of 0.208. In the case of A11G A49G, the self-cleavage is reported as 0.577. C12G A41U showed a self-cleavage of 1.25. For C10U A59U, the self-cleavage was 0.124. With C12A A71G the self-cleavage was 0.848. In the case of A11U G54U, the self-cleavage is reported as 0.565. With A11U G68U the self-cleavage was 0.292. A11U G68C gave a self-cleavage of 0.13. A11G A36U gave a self-cleavage of 0.512. With A11C G56A the self-cleavage was 0.15. Work on C10U C16U yielded a self-cleavage of 0.871. For C12G A44C, the self-cleavage was 0.202. For C10U G56C, the self-cleavage was 0.25. For C10U G56U, the self-cleavage was 0.162. C10U G56A showed a self-cleavage of 0.181. Variant C10U C50G has a self-cleavage of 0.195. Work on A11G U58C yielded a self-cleavage of 0.81. For A11G U58A, the self-cleavage was 0.557. Variant C12A G34C has a self-cleavage of 1.17. For A11C G29A, the self-cleavage was 0.128. With A11G A59C the self-cleavage was 0.17. C12G G13U showed a self-cleavage of 0.561. In the case of C12G G13C, the self-cleavage is reported as 0.944. Work on A11U U67G yielded a self-cleavage of 0.287. For A11U U70C, the self-cleavage was 0.848. With A11C G19C the self-cleavage was 0.589. Variant A11C U53G has a self-cleavage of 0.863. C12A G42A showed a self-cleavage of 0.168. A11G G40A gave a self-cleavage of 0.291. For A11G G40C, the self-cleavage was 0.188. Work on C12G A45U yielded a self-cleavage of 0.116. With C12A C18G the self-cleavage was 0.872. For C12A C18U, the self-cleavage was 0.834. C12G A36U gave a self-cleavage of 0.517. For A11U A39U, the self-cleavage was 0.309. Variant A11U A39C has a self-cleavage of 0.495. Variant C12A G32C has a self-cleavage of 0.0893. C10U G42A gave a self-cleavage of 0.195. Work on C12G C66A yielded a self-cleavage of 0.171. For C12A U60A, the self-cleavage was 0.621. With C12A U60G the self-cleavage was 0.459. C12A U60C gave a self-cleavage of 0.893. In the case of A11C A35C, the self-cleavage is reported as 0.764. With A11G G15A the self-cleavage was 0.896. A11G G15U gave a self-cleavage of 0.857. In the case of C12G A35C, the self-cleavage is reported as 0.74. Variant C12G A35U has a self-cleavage of 0.731. In the case of C12G A49C, the self-cleavage is reported as 0.196. With A11U U33C the self-cleavage was 0.152. Work on A11U U33G yielded a self-cleavage of 0.151. Variant A11G C12G has a self-cleavage of 0.788. C12G A31G gave a self-cleavage of 0.455. Variant C12G A31U has a self-cleavage of 0.152. A11C A23G gave a self-cleavage of 0.642. A11C A23U showed a self-cleavage of 0.6. Work on A11C A23C yielded a self-cleavage of 0.622. A11U A31C showed a self-cleavage of 0.152. A11U A31G showed a self-cleavage of 0.464. Variant A11G G68A has a self-cleavage of 0.277. A11G A28G showed a self-cleavage of 1.11. A11C A49C gave a self-cleavage of 0.192. With C12G C38G the self-cleavage was 0.142. Work on C12G C38A yielded a self-cleavage of 0.148. In the case of C12A U52C, the self-cleavage is reported as 0.768. In the case of C12A U52A, the self-cleavage is reported as 0.763. For A11U A49G, the self-cleavage was 0.558. A11U C65A showed a self-cleavage of 0.719. A11C U55G gave a self-cleavage of 0.249. For C12A U55A, the self-cleavage was 0.288. Work on C12A G57C yielded a self-cleavage of 0.17. Work on C12A U53G yielded a self-cleavage of 0.587. C12A U53A gave a self-cleavage of 0.785. In the case of C12G A43C, the self-cleavage is reported as 0.125. Work on C12G A43G yielded a self-cleavage of 0.139. For C12G A43U, the self-cleavage was 0.196. Work on A11C A30G yielded a self-cleavage of 0.0919. A11G U20C gave a self-cleavage of 0.857. Work on A11G U20G yielded a self-cleavage of 0.982. C10U C37A showed a self-cleavage of 0.364. In the case of C10U C37G, the self-cleavage is reported as 0.299. C10U U60A showed a self-cleavage of 0.67. C12A A30U showed a self-cleavage of 0.172. Work on C12A A30G yielded a self-cleavage of 0.206. In the case of C10U G54C, the self-cleavage is reported as 0.444. With C10U G57A the self-cleavage was 0.249. Variant C10U G57U has a self-cleavage of 0.239. Work on C12G A39U yielded a self-cleavage of 0.32. Variant A11G A31U has a self-cleavage of 0.0838. With A11G A31C the self-cleavage was 0.0862. For A11G A31G, the self-cleavage was 0.728. With A11U U62C the self-cleavage was 0.187. C12A C50U gave a self-cleavage of 0.399. Variant C10U G34U has a self-cleavage of 1.09. With C10U G68U the self-cleavage was 0.189. C12G A71G gave a self-cleavage of 0.803. For A11G U70C, the self-cleavage was 0.952. A11G U70A showed a self-cleavage of 0.627. C12G A64U gave a self-cleavage of 0.173. C12G A64C showed a self-cleavage of 0.334. With C12A U33A the self-cleavage was 0.158. For A11C U14G, the self-cleavage was 0.661. In the case of A11G G57A, the self-cleavage is reported as 0.159. Work on A11G G57U yielded a self-cleavage of 0.392. Variant C12A A39C has a self-cleavage of 0.397. Work on A11U U53A yielded a self-cleavage of 0.679.
